Reference: patent US20240034816A1

What was measured:
[1] = target: human CD16a (human FcγRIIIA), V isoform (human) (UniProt P08637); assay: SPR (Biacore T200), His-tagged huCD16a captured by anti-His antibody on CM5 chip, antibody injected at 5.8-3000 nmol/L, steady state fit
[2] = target: human neonatal Fc receptor (FcRn) (human) (UniProt P55899); assay: SPR, binding to huFcRn at pH 6.0

Sequence of human CD16a (human FcγRIIIA), V isoform (human) (P08637 17-208 F176V limits assumed): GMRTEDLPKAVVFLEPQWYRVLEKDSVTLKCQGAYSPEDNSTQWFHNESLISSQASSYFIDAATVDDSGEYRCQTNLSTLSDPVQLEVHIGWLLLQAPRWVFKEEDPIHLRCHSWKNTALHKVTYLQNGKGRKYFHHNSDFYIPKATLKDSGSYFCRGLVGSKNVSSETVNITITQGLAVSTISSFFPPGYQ

Kd [1]: 467 nM
Kd [2]: 154 nM
Substance: Adalimumab huIgG1 ctrl (antibody)
